As usually defined, the Kd is the concentration at which binding is half-saturated.

The values that follow come from patent US20100021479A1 (Bristol-Myers Squibb, published 2010).

The target of test [1] is T1, human CD30 (human, UniProt P28908 19-595).
T1 construct: whole, on cells; The target was always presented on cells; also called CD30 antigen
T1 sequence (looked up): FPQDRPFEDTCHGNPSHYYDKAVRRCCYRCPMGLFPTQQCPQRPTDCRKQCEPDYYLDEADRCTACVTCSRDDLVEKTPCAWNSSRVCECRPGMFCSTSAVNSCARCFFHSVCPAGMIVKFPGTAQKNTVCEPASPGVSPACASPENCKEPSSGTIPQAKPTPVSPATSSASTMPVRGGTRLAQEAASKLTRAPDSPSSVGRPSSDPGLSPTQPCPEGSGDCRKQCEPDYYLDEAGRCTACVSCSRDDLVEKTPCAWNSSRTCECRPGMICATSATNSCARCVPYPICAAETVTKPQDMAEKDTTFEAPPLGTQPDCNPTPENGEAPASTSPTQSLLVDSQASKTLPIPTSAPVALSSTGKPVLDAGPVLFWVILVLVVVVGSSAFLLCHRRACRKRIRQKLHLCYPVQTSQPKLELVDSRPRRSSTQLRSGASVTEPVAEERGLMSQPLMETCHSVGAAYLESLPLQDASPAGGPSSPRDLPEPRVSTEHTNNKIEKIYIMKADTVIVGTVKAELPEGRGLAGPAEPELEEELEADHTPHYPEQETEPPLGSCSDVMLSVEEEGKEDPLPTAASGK
The test is described as follows: Scatchard analysis, 125I-labelled antibody on CD30 positive L540 cells, 4 °C. On the procedure: (§1) Human or cynomolgus peripheral blood cells were stimulated with 2 μg/ml PHA, 10 μg/ml Con A, and 50 U/ml rIL-2 and cultured in RPMI1640 media containing 10% fetal bovine serum (FBS) at 1×10⁶ cells/ml density for 3 days. On the day of the study, the cells were washed and adjusted to 2×10⁷ cells/m in binding buffer (RPMI1640+10% FBS). As a control, CD30 positive L540 cells (adjusted to 4-8×10⁶ cells/ml) were used in these studies since they express high levels of the antigen. The cells were placed on ice until the initiation of the experiment. Millipore glass fiber filter plates (MAFBN0B50) were coated with 1% nonfat dry milk in water and stored a 4° C. overnight. The plates were washed three times with 0.2 ml of binding buffer. Fifty microliters of buffer alone was added to the maximum binding wells (total binding). Twenty-five microliters of buffer alone was added to the control wells. Varying concentration of ¹²⁵I-anti-CD30 antibody was added to all wells in a volume of 25 μL. Varying concentrations of unlabeled antibody at 300-400 fold excess were added in a volume of 25 μl to control wells (non-specific binding) and 25 μl of CD30 positive L540 cells or stimulated human or cynomolgus peripheral blood cells in binding buffer were added to all wells. The plates were incubated for 2 hours at 200 RPM on a shaker at 4° C. […] The filters were removed and counted in a gamma counter. […]

In test [2] the target is T1, human CD30. The test is described as follows: cell-based or functional assay.
In test [3] the target is T1, human CD30. The test is described as follows: Scatchard analysis, 125I-labelled antibody on PHA/Con A/rIL-2-activated human peripheral blood cells, 4 °C. On the procedure: as §1
Test [4] addresses T2, cynomolgus CD30 on PHA, Con A and rIL-2 activated cynomolgus peripheral blood mononuclear cells (cynomolgus, UniProt A0A2K5VW07 29-603).
T2 construct: whole, on cells
T2 sequence: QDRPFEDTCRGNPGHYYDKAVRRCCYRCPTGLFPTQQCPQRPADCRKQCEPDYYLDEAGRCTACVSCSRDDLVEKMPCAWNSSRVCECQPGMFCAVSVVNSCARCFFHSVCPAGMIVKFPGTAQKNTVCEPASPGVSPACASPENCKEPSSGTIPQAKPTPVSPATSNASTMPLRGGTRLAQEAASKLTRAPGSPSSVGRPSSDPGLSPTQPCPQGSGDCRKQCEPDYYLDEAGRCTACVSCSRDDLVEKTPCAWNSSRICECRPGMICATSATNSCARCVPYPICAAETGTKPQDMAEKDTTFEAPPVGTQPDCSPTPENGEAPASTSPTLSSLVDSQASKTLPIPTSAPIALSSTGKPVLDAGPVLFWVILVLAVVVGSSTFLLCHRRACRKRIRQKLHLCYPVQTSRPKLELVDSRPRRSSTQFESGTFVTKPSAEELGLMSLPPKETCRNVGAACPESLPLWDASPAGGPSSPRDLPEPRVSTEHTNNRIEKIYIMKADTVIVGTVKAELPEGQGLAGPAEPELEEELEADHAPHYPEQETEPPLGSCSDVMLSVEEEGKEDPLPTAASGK
The test is described as follows: Scatchard analysis, 125I-labelled antibody on PHA/Con A/rIL-2-activated cynomolgus peripheral blood mononuclear cells, 4 °C. On the procedure:
as §1

B1: fucosylated 5F11 anti-CD30 fully human monoclonal antibody (expressed in CHO DG44 cells) (antibody, IgG1, V domains shown)
VH: QVQLQQWGAGLLKPSETLSLTCAVYGGSFSAYYWSWIRQPPGKGLEWIGDINHGGGTNYNPSLKSRVTISVDTSKNQFSLKLNSVTAADTAVYYCASLTAYWGQGSLVTVSS
VL: DIQMTQSPTSLSASVGDRVTITCRASQGISSWLTWYQQKPEKAPKSLIYAASSLQSGVPSRFSGSGSGTDFTLTISSLQPEDFATYYCQQYDSYPITFGQGTRLEIK
notes: It was made in CHO DG44 (FUT8+/+) cells, so the carbohydrate contains fucose; also called fuc-5F11; Anti-CD30 + fucose
In the test with human CD30 [1], B1 registered a Kd of 1.37 nM. In addition, in the test with human CD30 [2], the “EC50 of ADCC, Karpas cells” value came out at 0.25 mg/L; the “EC50 of ADCC, L428 cells” value came to 0.1 mg/L; the “EC50 of ADCC, L540 cells” value came to 0.042 mg/L; the “EC50 of ADCC, L1236 cells” value was 1.22 mg/L. The same molecule displayed a Kd with human CD30 [3] of 1.08 nM. This molecule also displayed a dissociation constant (Kd) in test [4] of 0.47 nM.

B2: defucosylated 5F11 anti-CD30 fully human monoclonal antibody (expressed in FUT8-/- Ms704 cells) (antibody, V domains shown)
VH: QVQLQQWGAGLLKPSETLSLTCAVYGGSFSAYYWSWIRQPPGKGLEWIGDINHGGGTNYNPSLKSRVTISVDTSKNQFSLKLNSVTAADTAVYYCASLTAYWGQGSLVTVSS
VL: DIQMTQSPTSLSASVGDRVTITCRASQGISSWLTWYQQKPEKAPKSLIYAASSLQSGVPSRFSGSGSGTDFTLTISSLQPEDFATYYCQQYDSYPITFGQGTRLEIK
As to B2, in the test with human CD30 [2], the “% Lysis ratio fucose-:fucose+, ADCC, Karpas cells” value is 2.63 fold; the “% Lysis ratio fucose-:fucose+, ADCC, L428 cells” value was found to be 2.15 fold; the “% Lysis ratio fucose-:fucose+, ADCC, L540 cells” value was determined as 1.61 fold; the “% Lysis ratio fucose-:fucose+, ADCC, L1236 cells” value amounted to 3.25 fold. Further, in the test with human CD30 [2], the “EC50 ratio fucose+:fucose-, ADCC, Karpas cells” value was 7.8 fold; the “EC50 ratio fucose+:fucose-, ADCC, L428 cells” value was 11.1 fold; the “EC50 ratio fucose+:fucose-, ADCC, L540 cells” value came out at 4.7 fold; the “EC50 ratio fucose+:fucose-, ADCC, L1236 cells” value is 27.1 fold.
